Positions of bridges follow the written chain, without caps; N, C: chain ends. Non-standard residues stand in square brackets, D forms with d. Primed or numbered codes have the meaning given here. No end group written: not given here. *: point of attachment. FITC = O=C1OC2(c3ccc(O)cc3Oc3cc(O)ccc32)c2ccc(NC(=S)*)cc21; trimesoyl″ = benzene-1,3,5-tricarbonyl scaffold; FITC′ = fluorescein isothiocyanate, on Lys NZ; Phe(3,4-F2) = N[C@@H](Cc1ccc(F)c(F)c1)C(=O)O; Phe(4-Cl) = N[C@@H](Cc1ccc(Cl)cc1)C(=O)O; Phe(4-F) = N[C@@H](Cc1ccc(F)cc1)C(=O)O; 2Nal = N[C@@H](Cc1ccc2ccccc2c1)C(=O)O; Phg = N[C@H](C(=O)O)c1ccccc1; Nle = CCCC[C@H](N)C(=O)O; Orn = NCCC[C@H](N)C(=O)O; Abu = CC[C@H](N)C(=O)O; Dap = NC[C@H](N)C(=O)O
B1: C1-10 (peptide)
peptide: RY[dA]KY[dF]G[dK]H[Dap]K(FITC′)-NH2
modifications: bridge (positions not given here) via trimesoyl″; not fully specified (N-terminus, bridges)
B2: C1-21 (peptide)
peptide: [Nle]Y[dS][Dap]Y[dF]G[dK]H[Dap]K(FITC′)-NH2
modifications: linker (positions not given here) via trimesoyl″; not fully specified (N-terminus, bridges)
B3: C1-20 (peptide)
peptide: [Nle]Y[dS][Orn]Y[dF]G[dK]H[Dap]K(FITC′)-NH2
modifications: linker (positions not given here) via trimesoyl″; not fully specified (N-terminus, bridges)
B4: C1-19 (peptide)
peptide: [Nle]YSKY[dF]G[dK]H[Dap]K(FITC′)-NH2
modifications: linker (positions not given here) via trimesoyl″; not fully specified (N-terminus, bridges)
notes: L-Ser at position 3
B5: C1-15 (peptide)
peptide: VY[dN]KY[dF]G[dK]H[Dap]K(FITC′)-NH2
modifications: linker (positions not given here) via trimesoyl″; not fully specified (N-terminus, bridges)
B6: C1-16 (peptide)
peptide: LY[dN]KY[dF]G[dK]H[Dap]K(FITC′)-NH2
modifications: linker (positions not given here) via trimesoyl″; not fully specified (N-terminus, bridges)
B7: C1-17 (peptide)
peptide: FY[dN]KY[dF]G[dK]H[Dap]K(FITC′)-NH2
modifications: linker (positions not given here) via trimesoyl″; not fully specified (N-terminus, bridges)
B8: C1-2 (peptide)
peptide: AY[dA]KY[dF]G[dK]H[Dap]K(FITC′)-NH2
modifications: linker (positions not given here) via trimesoyl″; not fully specified (N-terminus, bridges)
B9: C1-14 (peptide)
peptide: VY[dT]KY[dF]G[dK]H[Dap]K(FITC′)-NH2
modifications: linker (positions not given here) via trimesoyl″; not fully specified (N-terminus, bridges)
B10: C1-13 (peptide)
peptide: VY[dS]KY[dF]G[dK]H[Dap]K(FITC′)-NH2
modifications: linker (positions not given here) via trimesoyl″; not fully specified (N-terminus, bridges)
B11: Anticachexin C1, Lys(FITC)-labelled (Table 2) (peptide)
peptide: [Phg]Y[dA]KY[dF]G[dK]H[Dap]K(FITC′)-NH2
modifications: linker (positions not given here) via trimesoyl″; not fully specified (N-terminus, bridges)
B12: C1-12 (peptide)
peptide: [Nle]Y[dN]KY[dF]G[dK]H[Dap]K(FITC′)-NH2
modifications: linker (positions not given here) via trimesoyl″; not fully specified (N-terminus, bridges)
B13: Asn-Asn-Asn-Lys(FITC)-labeled anticachexin C1 (peptide)
peptide: [Phg]Y[dA]KY[dF]G[dK]H[Dap]NNNK(FITC′)-NH2
modifications: bridge (positions not given here) via trimesoyl″; not fully specified (N-terminus, bridges); also: feature: K4 labeled with FITC
notes: also called C1-NNNK(FITC); NNNK-tagged anticachexin C1
B14: C1-23 (peptide)
peptide: [Nle][Phe(4-F)][dS]KY[dF]G[dK]H[Dap]K(FITC′)-NH2
modifications: bridge (positions not given here) via trimesoyl″; not fully specified (N-terminus, bridges)
B15: C1-22 (peptide)
peptide: [Nle]F[dS]KY[dF]G[dK]H[Dap]K(FITC′)-NH2
modifications: linker (positions not given here) via trimesoyl″; not fully specified (N-terminus, bridges)

target: T1, Recombinant TNFα containing an N-terminal 13-aa ybbR tag (human, UniProt P01375 77-233, biotin at the ybbR tag in the ELISA assays); assay: FA
T1 construct: Expressed in E. coli; Same construct used unlabelled (FA) and biotinylated on NeutrAvidin (ELISA); also called tumor necrosis factor-alpha; human TNFα; not shown: N-terminal 13-aa ybbR tag
T1 sequence (P01375 77-233): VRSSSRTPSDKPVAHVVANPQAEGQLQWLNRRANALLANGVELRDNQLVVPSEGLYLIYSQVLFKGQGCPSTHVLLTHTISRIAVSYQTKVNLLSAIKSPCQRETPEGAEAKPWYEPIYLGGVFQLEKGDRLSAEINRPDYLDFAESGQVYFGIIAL
Method: (§1) The FA values were measured on a Molecular Devices Spectramax M5 spectrofluorimeter, with excitation and emission wavelengths at 485 and 525 nm, respectively. Equilibrium dissociation constants (KD) were determined by plotting the FA values as a function of TNFα concentration and fitting the data to the following equation $$Y = \frac{\left(Amin + \left(Amax \times \frac{Q_b}{Q_f} - Amin\right)\left(\frac{(L+x+K_d) - \sqrt{((L+x+K_d)^2 - 4Lx)}}{2L}\right)\right)}{\left(1 + \left(\frac{Q_b}{Q_f} - 1\right)\left(\frac{(L+x+K_d) - \sqrt{((L+x+K_d)^2 - 4Lx)}}{2L}\right)\right)}$$
(§2) where Y is the measured anisotropy at a given TNFα concentration x; L is the bicyclic peptide concentration; Qb/Qf is the correction fact for dye-protein interaction; Amax is the maximum anisotropy when all the peptides are bound to TNFα, while $Amin$ is the minimum anisotropy. […] The FA values were plotted against the competitor peptide concentration to determine the IC$50$ values.

| Binder | fold reduction in affinity against C1-35 [fold] | fold decrease in TNFα binding against C1 (Phg at position-1) [fold] |
| --- | --- | --- |
| [Nle]Y[dS]KW[dH]G[dK]H[Dap]RK(FITC)-NH2 (linker N-4-10 via trimesoyl″, C1-35 core with R11 as printed) [C1-53] | > 40 |  |
| B1 |  | ≥ 5 |

target: T1, Recombinant TNFα containing an …; assay: FA, FITC-peptide + TNFα titration
Method: as §1, §2

| Binder | Kd [nM] |
| --- | --- |
| B2 | 5900 |
| B3 | 3500 |
| B4 | 6800 |
| VY[dA]KY[dF]G[dK]H[Dap]K(FITC)-NH2 (linker (positions not given here) via trimesoyl″; not fully specified (bridges)) [C1-4] | 1700 |
| B5 | 3200 |
| B6 | 2700 |
| B7 | 2200 |
| B8 | 1800 |
| B9 | 2900 |
| B10 | 2400 |
| B11 | 1400 |
| B12 | 1400 |
| [Abu]Y[dA]KY[dF]G[dK]H[Dap]K(FITC)-NH2 (linker N-4-10 via trimesoyl″) [C1-3] | 2000 |
| B13 | 800 |

target: T1, Recombinant TNFα containing an …; assay: FA, FITC-peptide + TNFα titration; remark: another data set of the same source
Method: as §1, §2

| Binder | Kd [nM] |
| --- | --- |
| [Nle]Y[dS]K[Phe(4-Cl)][dH]G[dK]H[Dap]K(FITC)-NH2 (linker N-4-10 via trimesoyl″) [C1-34] | 1600 |
| B14 | 1200 |
| [Nle][Phe(4-Cl)][dS]KY[dH]G[dK]H[Dap]K(FITC)-NH2 (linker N-4-10 via trimesoyl″) [C1-40] | 4100 |
| [Nle][Phe(4-F)][dS]KY[dH]G[dK]H[Dap]K(FITC)-NH2 (linker (positions not given here) via trimesoyl″; not fully specified (bridges)) [C1-39] | 1700 |
| [Nle][Phe(4-F)][dS]KY[dQ]G[dK]H[Dap]K(FITC)-NH2 (linker N-4-10 via trimesoyl″) [C1-37] | 1300 |
| [Nle][Phe(4-Cl)][dS]KY[dF]G[dK]H[Dap]K(FITC)-NH2 (linker N-4-10 via trimesoyl″) [C1-24] | 4800 |
| [Nle]Q[dS]KY[dF]G[dK]H[Dap]K(FITC)-NH2 (linker N-4-10 via trimesoyl″) [C1-28] | 4300 |
| B15 | 1700 |
| [Nle]Y[dS]KY[dQ]G[dK]H[Dap]K(FITC)-NH2 (linker N-4-10 via trimesoyl″) [C1-32] | 1300 |
| [Nle]W[dS]KY[dH]G[dK]H[Dap]K(FITC)-NH2 (linker N-4-10 via trimesoyl″) [C1-41] | 430 |
| [Nle]H[dS]KY[dF]G[dK]H[Dap]K(FITC)-NH2 (linker N-4-10 via trimesoyl″) [C1-26] | 2100 |
| [Nle]Y[dS]KY[dL]G[dK]H[Dap]K(FITC)-NH2 (linker N-4-10 via trimesoyl″) [C1-31] | 2500 |
| [Nle]L[dS]KY[dF]G[dK]H[Dap]K(FITC)-NH2 (linker N-4-10 via trimesoyl″) [C1-27] | 3700 |
| [Nle]Y[dS]KY[dY]G[dK]H[Dap]K(FITC)-NH2 (linker N-4-10 via trimesoyl″) [C1-29] | 2000 |
| [Nle]Y[dS]K[Phe(4-F)][dH]G[dK]H[Dap]K(FITC)-NH2 (linker N-4-10 via trimesoyl″) [C1-33] | 760 |
| [Nle][Phe(3,4-F2)][dS]KY[dF]G[dK]H[Dap]K(FITC)-NH2 (linker N-4-10 via trimesoyl″) [C1-25] | 5400 |
| [Nle]Y[dS]K[2Nal][dH]G[dK]H[Dap]K(FITC)-NH2 (linker N-4-10 via trimesoyl″) [C1-36] | 1300 |
